Measurements published in patent JP2000515494A (dated 2000).

Molecular target: T1, 4A6/IL-5複合体 (hIL-5 captured on immobilised mAb 4A6) (human, UniProt P05113 20-134)
T1 construct: also called 4A6/IL-5 complex
Test: BIAcore: mAb 4A6 immobilised, hIL-5 captured, IL-5Rα injected at 15, 30, 60, 120 nM

T1 sequence (P05113 20-134): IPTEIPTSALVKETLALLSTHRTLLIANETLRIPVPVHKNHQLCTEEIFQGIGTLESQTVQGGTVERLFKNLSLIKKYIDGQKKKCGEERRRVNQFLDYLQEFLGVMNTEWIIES

B1: 可溶性IL-5レセプターα鎖 (soluble IL-5 receptor alpha chain) (receptor, UniProt Q01344 21-335, looked up)
chain: DLLPDEKISLLPPVNFTIKVTGLAQVLLQWKPNPDQEQRNVNLEYQVKINAPKEDDYETRITESKCVTILHKGFSASVRTILQNDHSLLASSWASAELHAPPGSPGTSIVNLTCTTNTTEDNYSRLRSYQVSLHCTWLVGTDAPEDTQYFLYYRYGSWTEECQEYSKDTLGRNIACWFPRTFILSKGRDWLAVLVNGSSKHSAIRPFDQLFALHAIDQINPPLNVTAEIEGTRLSIQWEKPVSAFPIHCFDYEVKIHNTRNGYLQIEKLMTNAFISIIDDLSKYDVQVRAAVSSMCREAGLWSEWSQPIYVGNDE
notes: also called IL-5Pα [sic]
koff: 0.0023 s⁻¹ | kon: 630000 M⁻¹ s⁻¹
